Targets include Human plasmin (human, UniProt P00747); Human thrombin (human, UniProt P00734); Human Factor Xa (human, UniProt P00742).
Common to all, as to assay: cell-based or functional assay
The target of another assay is T1, Human Factor XIIa (human, UniProt P00748).
T1 sequence 1: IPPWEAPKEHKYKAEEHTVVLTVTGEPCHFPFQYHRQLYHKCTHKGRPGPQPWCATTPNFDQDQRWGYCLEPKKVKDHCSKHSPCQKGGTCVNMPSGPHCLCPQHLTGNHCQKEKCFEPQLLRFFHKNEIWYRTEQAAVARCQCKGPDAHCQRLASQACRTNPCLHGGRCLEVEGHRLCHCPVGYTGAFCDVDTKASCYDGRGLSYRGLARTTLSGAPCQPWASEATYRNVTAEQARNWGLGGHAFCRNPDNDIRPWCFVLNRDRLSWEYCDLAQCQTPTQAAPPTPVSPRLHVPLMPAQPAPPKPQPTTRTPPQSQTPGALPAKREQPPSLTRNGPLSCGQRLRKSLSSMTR
T1 sequence 2: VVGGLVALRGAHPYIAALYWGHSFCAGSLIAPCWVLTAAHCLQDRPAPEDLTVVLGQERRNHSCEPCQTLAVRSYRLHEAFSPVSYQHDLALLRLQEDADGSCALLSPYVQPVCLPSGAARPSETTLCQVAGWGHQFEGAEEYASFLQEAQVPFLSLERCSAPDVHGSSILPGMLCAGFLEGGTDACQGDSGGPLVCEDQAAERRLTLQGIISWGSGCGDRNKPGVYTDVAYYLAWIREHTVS

Assay [1] has as its target Human activated protein C (human, UniProt P04070).

Where no end group is shown, it is not given here.

B1: APPI (Alzheimer's amyloid β-protein precursor inhibitor) (other)
chain: VREVCSEQAETGPCRAMISRWYFDVTEGKCAPFFYGGCGGNRNNFDTEEYCMAVCGSA
modifications: not fully specified (bridges); ends and bridges not checked
With B1, the “fraction of remaining proteolytic activity with 100 nM inhibitor” value was 0.97 fraction of uninhibited rate with Human Factor XIIa; 0.87 fraction of uninhibited rate in assay [1]; 0.62 fraction of uninhibited rate in the assay with Human plasmin; 0.92 fraction of uninhibited rate with Human thrombin; 0.89 fraction of uninhibited rate with Human Factor Xa.

Values taken from patent US5786328, “Use of kunitz type plasma kallikrein inhibitors” (Genentech, Inc., dated 1998).
